According to patent US11344542B2, “Treatment of aging-associated disease with modulators of leukotriene A4 hydrolase” (Alkahest, Inc., priority 2018, dated 2022):

Tests used:
Type in all cases: in vivo, mouse
[1] = tested on: mRNA levels of neuronal and glial genes; assay: qPCR of mRNA levels in young mice treated with recombinant human LTA4H protein; details: paradigm 1; vs PBS
Method: Brain tissue was sectioned or lysed and analyzed for markers of neurogenesis and aging by standard histological and biochemical methods, including qRT-PCR, Western blot, ELISA, and immunohistochemistry.
Young, 8-week old wild-type (WT; C57BL/6) mice were homogenized between groups by body weight. Following group determination, mice were injected intraperitoneally (IP) with BrdU (5-bromo-2′-deoxyuridine) formulated in PBS (phosphate buffered saline) at a final concentration of 10 mg/mL dosed at 150 mg/kg for 5 days Immediately following the BrdU dosing, group 1 was injected intravenously (IV) with PBS control and group 2 with recombinant human LTA4H protein daily for 7 consecutive days. One week after the completion of LTA4H administration, in week 3, mice in both treatment groups were injected IP with EdU (5-ethynyl-2′-deoxyuridine) formulated in PBS at a final concentration of 10 mg/mL and dosed at 50 mg/kg for 5 days. Behavioral assays were executed in week 5 and 6, and animals were sacrificed, and tissues collected immediately after completion of behavior testing in week 6. FIG. 3 depicts the treatment paradigm and injection timing for the study.
FIG. 9 reports the results of quantitative polymerase chain reaction (qPCR) quantifying mRNA levels of vesicular glutamate […] (vglut1), synapsin 1 (syn1), synaptophysin (syp), early growth response 1 (egr1), doublecortin (dcx), beta III tubulin (tuj1), glial acidic fibrillary protein (gfap), SRY-Box 2 (sox2), oligodendrocyte transcription factor 2 in 3 months old (young) wild-type (C57BL/6) mice treated with recombinant human LTA4H protein or phosphate buffered saline (PBS) control. […] Egr1 is an immediate early gene and a reduction in expression is indicative of a depression of neuronal activity. Tuj1 is a neuronal marker and the reduction in expression points to detrimental effects on neurons. […] Overall the decreases in neuronal markers and trends towards decreases in oligodendrocyte markers indicate a detrimental effect on neuronal activity and integrity in LTA4H treated animals. […]

[2] = tested on: 8-week old (young) wild-type (C57BL/6) mice; assay: Y-maze in young mice treated with recombinant human LTA4H protein
Method: A large Y-maze test assessed short-term memory of the familiarity of a specific context. Mice were brought to the experimental room for at least 30 min of acclimation to the experimental room conditions (dim lighting) prior to testing. For the initial training trial, the mouse was placed at the end of one arm of a large Y-maze designated “start arm” (arm length: 15 inches). The third arm of the maze was blocked off, allowing the mouse to explore two of the three arms freely (“start arm” and “familiar arm”) for 5 min. Each arm contained spatial cues. Three hours later, the mouse was placed back into the maze in the “start arm,” and allowed to explore all three arms with the third arm unblocked (“novel arm”). Movements in and out of each arm were tracked using automated tracking software (CleverSys or San Diego Instruments). Testing was performed under dim lighting, and the apparatus was cleaned with 70% ethanol between trials. The time spent and number of entireties into the “novel arm” and “familiar arm” were analyzed, as well as total distance travelled and velocity as measures of general locomotor activity.
The initial study in young, 8-week old wild-type (WT; C57BL/6) mice was repeated in a second cohort of mice with additional timepoints and readouts. Mice were homogenized between 3 treatment groups by body weight. Group 1 (Vehicle) was injected intravenously (IV) with PBS control 3 times per week for 6 weeks, group 2 (LTA4H Pulse) with recombinant human LTA4H protein daily for 7 consecutive days, and group 3 (LTA4H Continuous) with recombinant human LTA4H protein 3 times per week for 6 weeks. In week 4 after the initiation of dosing, mice in all treatment groups were injected IP with BrdU (5-bromo-2′-deoxyuridine) formulated in PBS (phosphate buffered saline) at a final concentration of 10 mg/mL dosed at 150 mg/kg for 5 days. Behavioral assays were executed in week 5 and 6, and animals were sacrificed, and tissues collected immediately after completion of behavior testing in week 6. FIG. 10 depicts the treatment paradigm and injection timing for the study. […]

[3] = tested on: 8-week old (young) wild-type (C57BL/6) mice; assay: Contextual and cued fear conditioning in young mice treated with recombinant human LTA4H protein
Method: Mice were brought into the testing room immediately before their trial to avoid exposure to sounds and scents from testing. Day 1: For training, mice were placed in the chambers, bright house light and fan on, for 2 minutes. Then an auditory cue (2000 Hz, 70 dB, conditioned stimulus (CS)) was presented for 30 seconds. A 2 second foot shock (0.6 mA; unconditioned stimulus (US)) was administered for the final 2 seconds of the CS. This procedure was repeated once, each after a 2 minute interval, and the mouse was removed from the chamber 30 seconds after the second shock. The pans, chamber walls and grid floors were cleaned with 70% ethanol between trials. Day 2: Seventy-two hours after the training, the mouse was returned to the same chamber in which the training occurred (memory for context), and freezing behavior was recorded for 3 min. The mouse was returned to its home cage. The pans, chamber walls, and grid floors were cleaned with 70% ethanol between trials. Day 3: 24 hours after context testing, the mouse was returned to the same chamber and freezing was recorded in a novel environment (altered context) and in response to the cue (memory for cue). […] The mouse was placed in the novel environment and freezing was recorded for 2 minutes. The auditory cue (2000 Hz, 70 dB, CS) was then presented for 30 seconds, and freezing was again recorded for 2 minutes. […]

B1: recombinant human LTA4H: Recombinant human LTA4H (Bio-techne, 4008-SN), leukotriene A4 hydrolase enzyme, dosed by tail vein i.v. injection (protein, UniProt P09960 2-611, looked up)
Leukotriene A-4 hydrolase: PEIVDTCSLASPASVCRTKHLHLRCSVDFTRRTLTGTAALTVQSQEDNLRSLVLDTKDLTIEKVVINGQEVKYALGERQSYKGSPMEISLPIALSKNQEIVIEISFETSPKSSALQWLTPEQTSGKEHPYLFSQCQAIHCRAILPCQDTPSVKLTYTAEVSVPKELVALMSAIRDGETPDPEDPSRKIYKFIQKVPIPCYLIALVVGALESRQIGPRTLVWSEKEQVEKSAYEFSETESMLKIAEDLGGPYVWGQYDLLVLPPSFPYGGMENPCLTFVTPTLLAGDKSLSNVIAHEISHSWTGNLVTNKTWDHFWLNEGHTVYLERHICGRLFGEKFRHFNALGGWGELQNSVKTFGETHPFTKLVVDLTDIDPDVAYSSVPYEKGFALLFYLEQLLGGPEIFLGFLKAYVEKFSYKSITTDDWKDFLYSYFKDKVDVLNQVDWNAWLYSPGLPPIKPNYDMTLTNACIALSQRWITAKEDDLNSFNATDLKDLSSHQLNEFLAQTLQRAPLPLGHIKRMQEVYNFNAINNSEIRFRWLRLCIQSKWEDAIPLALKMATEQGRMKFTRPLFKDLAAFDKSHDQAVRTYQEHKASMHPVTAMLVGKDLKVD
- egr1 mRNA expression (qPCR) [1]: significant decrease
- olig 2 mRNA expression (qPCR) [1]: trend towards a decrease
- tuj1 mRNA expression (qPCR) [1]: significant decrease
- memory of the familiar arm in Y-maze testing (novel vs familiar arm entries) ([2]; paradigm 2: continuous dosing): impaired memory
- memory of the familiar arm in Y-maze testing (novel vs familiar arm entries) ([2]; paradigm 2: pulse dosing): impaired memory
- number of entries into the familiar arm during Y-maze training ([2]; paradigm 2: pulse or continuous dosing, vs PBS): no differences
- percent time freezing during contextual testing ([3]; 72 hours after training, IV daily for 7 consecutive days, vs PBS): significantly decreased freezing
- percent time freezing during cued testing ([3]; pre/post cue tone, difference between treatment groups): no significant difference between treatment groups
